Laboratory results taken from US20220064322A1 (JACOBIO PHARMACEUTICALS, published 2022).

Tests used:
[1] = biological target: T1, cynomolgus CD73 on the cell surface (293T/17-cynoCD73 cells) (cynomolgus (Macaca fascicularis), UniProt P21589 27-547 (human entry)); experiment: flow cytometry on 293T/17-Cyno CD73 cells, curve fit
T1 construct: it is an ecto-domain with a His tag
T1 chain: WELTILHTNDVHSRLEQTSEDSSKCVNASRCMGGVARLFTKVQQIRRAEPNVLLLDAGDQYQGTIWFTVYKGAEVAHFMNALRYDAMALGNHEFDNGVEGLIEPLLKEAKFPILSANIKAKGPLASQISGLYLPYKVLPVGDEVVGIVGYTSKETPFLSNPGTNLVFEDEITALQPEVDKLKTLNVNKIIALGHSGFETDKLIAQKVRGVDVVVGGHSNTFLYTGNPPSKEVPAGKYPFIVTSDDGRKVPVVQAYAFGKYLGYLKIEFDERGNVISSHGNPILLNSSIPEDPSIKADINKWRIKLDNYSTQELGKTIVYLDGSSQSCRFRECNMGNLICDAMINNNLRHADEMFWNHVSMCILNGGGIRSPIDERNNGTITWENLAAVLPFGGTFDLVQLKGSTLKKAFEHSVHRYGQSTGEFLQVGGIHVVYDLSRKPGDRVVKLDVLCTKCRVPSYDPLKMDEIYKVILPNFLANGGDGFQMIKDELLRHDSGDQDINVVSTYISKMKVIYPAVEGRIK
Method: (§1) 2×10⁶ cells resuspended in PBS buffer were distributed into 96-well plates and incubated with gradient diluted humanized antibodies for 1 h at refrigerator 4° C. or on ice, then the cells was centrifuged for 3 min 1500 rpm at 4° C. and washed three times by PBS, and diluted APC-labeled goat anti-human polyclonal antibody (Biolegend) were incubated for 30 min at refrigerator 4° C. Finally, the cells were washed three times with PBS as described above and analyzed on MACSQuant flow cytometer. GraphPad Prism software was used to generate data graphs and statistical affinity data.
(§2) The samples to be tested were incubated for 1 h at 4° C. after gradient dilution. After washing, 100 μL of APC-labeled secondary antibody was added to each well and incubated for 30 min. After washing, detecting on machine and the fluorescence value was read. GraphPad Prism software was used to generate data graphs and statistical affinity data.

[2] = biological target: T2, human CD73 ecto-domain recombinant protein (huCD73) (human, UniProt P21589 27-547); experiment: indirect ELISA, plate coated with 1 ug/ml huCD73 recombinant protein, HRP-labelled secondary antibody, RFU
T2 construct: also called soluble huCD73; soluble recombinant CD73
T2 sequence: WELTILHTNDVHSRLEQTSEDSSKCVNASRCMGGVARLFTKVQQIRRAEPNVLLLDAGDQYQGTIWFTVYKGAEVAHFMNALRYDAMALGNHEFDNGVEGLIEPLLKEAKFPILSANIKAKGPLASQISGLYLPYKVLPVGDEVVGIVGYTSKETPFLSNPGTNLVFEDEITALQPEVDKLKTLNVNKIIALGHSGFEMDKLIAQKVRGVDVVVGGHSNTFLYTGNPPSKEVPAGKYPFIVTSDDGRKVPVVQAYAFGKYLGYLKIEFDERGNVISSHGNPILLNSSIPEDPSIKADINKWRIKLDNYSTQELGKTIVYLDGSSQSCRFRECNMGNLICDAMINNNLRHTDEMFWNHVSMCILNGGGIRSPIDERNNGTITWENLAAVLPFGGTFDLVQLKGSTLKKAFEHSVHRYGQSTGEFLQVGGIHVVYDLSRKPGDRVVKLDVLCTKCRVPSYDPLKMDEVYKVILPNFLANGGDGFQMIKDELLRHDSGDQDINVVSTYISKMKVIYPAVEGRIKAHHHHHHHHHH
Method: (§3) Incubated with gradient diluted 100 μL/well of antibodies for 1 h at room temperature. After the plates were washed 3 times with 200 ul/well of PBST, 100 ul of diluted HRP-labeled secondary antibody at a ratio of 1:5000 was added to each well, and the plates were incubated for 1 hour at room temperature. The plates were washed 3 times with 200 ul/well of PBST, 100 ul of TMB was added to each well and reacted for 5 minutes at room temperature in the dark. […] read the OD value. The affinity of humanized antibodies and parent antibodies were similar to the antigen (table 9).

[3] = biological target: T2, human CD73 ecto-domain recombinant …; experiment: indirect ELISA, coated huCD73 recombinant protein
Method: as §3

[4] = biological target: T2, human CD73 ecto-domain recombinant …; experiment: indirect ELISA, coated huCD73 recombinant protein, curve fit
Method: as §3

[5] = biological target: T1, cynomolgus CD73 on the cell surface …; experiment: cell-based or functional assay
[6] = biological target: T1, cynomolgus CD73 on the cell surface …; experiment: flow cytometry on 293T/17-Cyno CD73 cells
Method: as §1, §2

B1: JB24H3L2 (antibody, human IgG1, kappa, V domains shown)
VH: QVQLVQSGAEVKKPGASVKMSCKASGYTFTDYNMHWVKQSHGKSLEWIGYIKPHNAGTTYNPKFEGRATLTVDTSASTAYMELRSLRSEDTAVYYCVRSDFLYWYFDVWGQGTTVTVSS
VL: DIQMTQSPSSLSASVGDRVTITCTASSSVSSSYLHWYQQKPGSAPKLWIYSTSNLASGVPSRFSGSGSGTDYTLTISSLQPEDFATYYCHQYHRSPLTFGAGTKLEIKR
notes: Humanized antibody of JB24Chi, human IgG1 / kappa
- Bottom [1]: 0.509 fluorescence
- Top [1]: 48.7 fluorescence
- EC50 (read off the curve) [2]: ~0.2 µg/mL
- EC50 [3]: 20.8 pM
- Bottom [4]: 89.1 OD value
- Top [4]: 7140 OD value
- IC50, blockade of 5'exonuclease activity on 293T/17-Cyno CD73 cells [5]: 4 pM
- EC50 [6]: 3590 pM

B2: JB24H3L3 (antibody, human IgG1, kappa, V domains shown)
VH: QVQLVQSGAEVKKPGASVKMSCKASGYTFTDYNMHWVKQSHGKSLEWIGYIKPHNAGTTYNPKFEGRATLTVDTSASTAYMELRSLRSEDTAVYYCVRSDFLYWYFDVWGQGTTVTVSS
VL: DIVMTQSPSSLSASVGDRVTITCTASSSVSSSYLHWYQQKPGSSPKLWIYSTSNLASGVPGRFSGSGSGTDYTLTISSLQPEDFATYYCHQYHRSPLTFGAGTKLEIKR
notes: as for B1
- Bottom [1]: 0.917 fluorescence
- Top [1]: 34 fluorescence
- EC50 (read off the curve) [2]: ~0.2 µg/mL
- EC50 [3]: 22.8 pM
- Bottom [4]: 9.8 OD value
- Top [4]: 7310 OD value
- IC50, blockade of 5'exonuclease activity on 293T/17-Cyno CD73 cells [5]: 3 pM
- EC50 [6]: 3730 pM

B3: JB94H2L1 (antibody, human IgG1, kappa, V domains shown)
VH: QVQLVQSGAEVKKPGASVKVSCKASGYTFTSYWMHWVRQRPGQGLEWMGYINPSSGYTKSNQKFKDRVTLTADTSTSTAYMELSSLRSEDTAVYYCGRWLLSAWFAYWGQGTLVTVSS
VL: DIQMTQSPSSLSASVGDRVTITCKASQDINTYLSWFQQKPGKAPKSLIYRSNILVDGVPSRFSGSGSGQDFTLTISSLQPEDFAIYYCLQYDDFPYTFGQGTKLEIKR
notes: Humanized antibody of the 94 clone, human IgG1 / kappa
- Bottom [1]: 0.22 fluorescence
- Top [1]: 82 fluorescence
- EC50 (read off the curve) [2]: ~0.02 µg/mL
- EC50 [3]: 25.2 pM
- Bottom [4]: -142 OD value
- Top [4]: 7110 OD value
- IC50, blockade of 5'exonuclease activity on 293T/17-Cyno CD73 cells [5]: 0.1 pM
- EC50 [6]: 7970 pM

B4: JB94H3L3 (antibody, human IgG1, kappa, V domains shown)
VH: QVQLQQSGAEVKKPGASVKLSCKASGYTFTSYWMHWVRQRPGQGLEWIGYINPSSGYTKSNQKFKDRATLTADTSTSTAYMELSSLRSEDTAVYYCGRWLLSAWFAYWGQGTLVTVSS
VL: DIQMTQSPSSLSASVGDRVTITCKASQDINTYLSWFQQKPGKSPKSLIYRSNILVDGVPSRFSGSGSGQDYTLTISSLQPEDFAIYYCLQYDDFPYTFGQGTKLEIKR
notes: as for B3
- Bottom [1]: 1.4 fluorescence
- Top [1]: 125 fluorescence
- EC50 (read off the curve) [2]: ~0.03 µg/mL
- EC50 [3]: 29.2 pM
- Bottom [4]: 320 OD value
- Top [4]: 8900 OD value
- IC50, blockade of 5'exonuclease activity on 293T/17-Cyno CD73 cells [5]: 2 pM
- EC50 [6]: 9820 pM

B5: 94H1L3 hIgG2 (antibody)
heavy: QVQLVQSGAEVKKPGASVKVSCKASGYTFTSYWMHWVRQAPGQGLEWMGYINPSSGYTKSNQKFKDRVTMTADTSTSTAYMELSSLRSEDTAVYYCGRWLLSAWFAYWGQGTLVTVSSASTKGPSVFPLAPCSRSTSESTAALGCLVKDYFPEPVTVSWNSGALTSGVHTFPAVLQSSGLYSLSSVVTVPSSNFGTQTYTCNVDHKPSNTKVDKTVERKCCVECPPCPAPPVAGPSVFLFPPKPKDTLMISRTPEVTCVVVDVSHEDPEVQFNWYVDGVEVHNAKTKPREEQFNSTFRVVSVLTVVHQDWLNGKEYKCKVSNKGLPAPIEKTISKTKGQPREPQVYTLPPSREEMTKNQVSLTCLVKGFYPSDIAVEWESNGQPENNYKTTPPMLDSDGSFFLYSKLTVDKSRWQQGNVFSCSVMHEALHNHYTQKSLSLSPGK
light: DIQMTQSPSSLSASVGDRVTITCKASQDINTYLSWFQQKPGKSPKSLIYRSNILVDGVPSRFSGSGSGQDYTLTISSLQPEDFAIYYCLQYDDFPYTFGQGTKLEIKRTVAAPSVFIFPPSDEQLKSGTASVVCLLNNFYPREAKVQWKVDNALQSGNSQESVTEQDSKDSTYSLSSTLTLSKADYEKHKVYACEVTHQGLSSPVTKSFNRGEC
- IC50, blockade of 5'exonuclease activity on 293T/17-Cyno CD73 cells [5]: 21 pM

B6: JB94Chi (antibody, human IgG1, kappa)
heavy: not shown
light: DIRMTQSPSSMYASLGERVTITCKASQDINTYLSWFQQKPGKSPKSLIYRSNILVDGVPSRFSGSGSGQDYSLTISSLEYEDMGIYYCLQYDDFPYTFGGGTKLEIKRTVAAPSVFIFPPSDEQLKSGTASVVCLLNNFYPREAKVQWKVDNALQSGNSQESVTEQDSKDSTYSLSSTLTLSKADYEKHKVYACEVTHQGLSSPVTKSFNRGEC
notes: Chimeric antibody: mouse Fv of 94A12G11F with human IgG1 and human kappa constant regions
- Bottom [1]: 1.45 fluorescence
- Top [1]: 124 fluorescence
- EC50 (read off the curve) [2]: ~0.03 µg/mL
- EC50 [3]: 35.7 pM
- Bottom [4]: 152 OD value
- Top [4]: 8470 OD value
- IC50, blockade of 5'exonuclease activity on 293T/17-Cyno CD73 cells [5]: 1 pM
- EC50 [6]: 8590 pM
